The source of these data is US20190241648A1 (STATEN BIOTECHNOLOGY B V, published 2019).

The target of assay [1] is T1, human ApoC3 (huApoC3), native protein purified from human serum (human, UniProt P02656 21-99).
T1 construct: Athens Research and Technology; randomly biotinylated in some assays; also called Apolipoprotein C3
In words: SPR Biacore, huApoC3 on chip, scFv-Fc as analyte. On the procedure:
This example describes characterization of anti-ApoC3 antibodies regarding their affinity to ApoC3 under neutral conditions using an SPR-based assay using a Biacore 3000 instrument (Biacore AB). Native huApoC3 protein was immobilized on a CM5 chip. The immobilization was performed in accordance with the method provided by Biacore using the NHS/EDC kit (Biacore AB): after activation of the chip, a solution of 60 μg/ml of human ApoC3 in 10 mM acetate buffer with pH of 4.5 was prepared and injected until the surface density reached approximately 1000 RU. Capturing of the human ApoC3 on the streptavidin coated chip (SA) was performed at pH 7.4 in accordance with a method provided by Biacore via injection of 20 μl 10 μg/ml biotinylated human ApoC3 thereby reaching the surface density of approximately 500 RU. […] After the dissociation, the flow cell surfaces were regenerated by injecting 10 μl of 10 mM […]/1 M NaCl and 10 μl of 10 mM glycine at pH1.5. The resulting sensorgrams were analyzed using the BIAevaluation 4.1 software using Langmuir 1:1 binding model to derive binding kinetics. Data was zero adjusted and the reference cell sensorgrams were subtracted.
A number of scFv-Fc antibodies were examined in this assay. The association rate (ka), dissociation rate (kd), analyte binding capacity (Rmax), equilibrium association constant (KA) and equilibrium dissociation constant (KD) of these antibodies are shown in Table 5.
A general note: Surface plasmon resonance follows binding to a sensor surface in real time, without labels.

Assay [2] concerns the target T1, human ApoC3 (huApoC3), native protein …. Put plainly: cell-based or functional assay.

T1 sequence (P02656 21-99): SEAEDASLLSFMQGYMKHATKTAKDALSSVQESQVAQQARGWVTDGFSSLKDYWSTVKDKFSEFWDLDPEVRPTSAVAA

B1: 8A4 scFv-Fc (Fc fusion)
VH: QVQLVESGGGLVQPGGSLKVSCTASGFTFNNYAMRWVRQAEGKGLEWVSSIDSGGDRTKYGDSVKGRFSISRDNAKNTVYLQMDALKPEDTGVYYCVSQGYIFWGQGAQVTVSS
VL: ATMLTQSPGSLSVVPGESASISCKASQSLVHSDGKTYLYWLLQKPGQRPQLLIYQVSNHESGVPDRFTGSGSGTDYTLKISGVKAEDAGVYYCAQATYYPLTFGQGTKVELK
notes: scFv-Fc format
Usually Kd stands for a measure of binding affinity in units of concentration. Higher therefore signals weaker binding. For orientation: koff means a measure of how fast the partners let go of each other. For orientation: kon means the rate constant with which the complex forms. Low values mean slower complex formation, high ones faster complex formation. In assay [1], B1 displayed a Ka of 4.27e+09 M⁻¹, a Kd of 0.234 nM, an off-rate (koff) of 7.02e-05 s⁻¹ and a kon of 300000 M⁻¹ s⁻¹. In addition, the “attenuation of the ability of ApoC3 to inhibit VLDL uptake by HepG2 cells” value in assay [2] is about 40%.

B2: 14G4 scFv-Fc (Fc fusion)
VH: QVQLVESGGGLVQPGGSLRLSCAASGFAFSRYTMNWVRQAPGKGLEWLSAISPDGGKTIDADSVKGAFASSRDNTMNTLYLDMNSLKPEDAAVYYCVAGHNMDYWGKGILVTVSS
VL: DVVLTQTPGSLSVVPGESASISCKASQSLVHSDGKTYLYWLLQKPGQSPQRLIYQVSNQGSGVPDRFTGSGSGTDFTLKISGVKAEDAGVYYCAQATYTPRTFGQGTTLEVK
As to B2, in assay [2], the “attenuation of the ability of ApoC3 to inhibit VLDL uptake by HepG2 cells” value is about 100%.

B3: 14C4 scFv-Fc (Fc fusion)
VH: QLQLVESGGGLVQPGGSLRLSCAASGFTFGNYDMSWVRQAPGKGPEWVSVINSDGDGTYYVDSVKGRFTISRDNAKNTLYLQMNSLKPEDRAVYYCAIANLGLWGQGTLVTVSS
VL: ATMLTQSPGSLSVVPGESASISCKATQSLVHSDGKTYLSWLLQKPGQSPQRLIYQVSNRGSGVPDRFTGSGSGTDFTLKISGVKAEDAGVYYCAQAPYWTFGQGTKLEIK
Take B3: in assay [2], the “attenuation of the ability of ApoC3 to inhibit VLDL uptake by HepG2 cells” value was about 60%.

B4: 8F4 scFv-Fc (Fc fusion)
VH: QLQLVESGGGLVQPGGSLRLSCAASGFAFSSYSMYWVRQAPGKGLERVAAIKTDGGSTNYADSVKGRFTVSRDNAKNTLYLQMNSLKSEDTAVYYCVIQGYGTWGQGTQVTVSS
VL: DLVLTQIPGSLSVVPGESASISCKASQSLVHSDGKTYLYWLLQKPGQSPQRLIYQVSNRGSGVPDRFTGSGSGTDFTLKISGVEAEDAGVYYCAQATYYGHSFGSGTRLEIK
notes: scFv-Fc format
In assay [1], B4 had a Ka of 1.72e+09 M⁻¹, a Kd of 0.581 nM, a koff of 9.44e-05 s⁻¹ and a kon of 163000 M⁻¹ s⁻¹. In addition, in assay [2], the “attenuation of the ability of ApoC3 to inhibit VLDL uptake by HepG2 cells” value is about 75%.

B5: 8H4 scFv-Fc (Fc fusion)
VH: ELQLVESGGGLVQPGRSLRLSCAASGFTFSSYSMRWVRQTPGKGLEWVTSINSDGGSTKYSDSVKGRFTISRDNAKNTLYLQMNNVKPEDTAIYYCAIQGYTDWGQGTQVTVSS
VL: DVVLTQTPGSLSVVPGESASISCKVSQSLVHSDGKTYLYWLLQKPGQSPQRLIYQVSNRDSGVPDRFTGSGSGTDFTLKISGVKAEDAGVYYCAQGTYNPYTFGSGTRLEIK
notes: scFv-Fc format
In assay [1], B5 displayed a Ka of 2.52e+09 M⁻¹, a Kd of 0.397 nM, a koff of 7.44e-05 s⁻¹ and an on-rate constant (kon) of 187000 M⁻¹ s⁻¹. The “attenuation of the ability of ApoC3 to inhibit VLDL uptake by HepG2 cells” value in assay [2] was about 70%.

B6: 14C7 scFv-Fc (Fc fusion)
VH: QVQVQESGPGLVKPSQTLSLTCTVSGGSITTNSYYWSWIRQPPGKGLEWMGAIDYSGDTYYSPSLKSRTSISRDTSKNQFTLQLTSVTPEDTAVYYCVSRIPTGEYWGQGTQVTVSS
VL: QTVVTQEPSLSVSPGGTVTLTCGLNSGSVTSSNYPDWYQQTPGQAPRLLIYNTNSRHSGVPSRFSGSISGNKAALTITGAQPEDEADYYCALYMGSDSVVFGGGTHLTVL
As to B6, in assay [2], the “attenuation of the ability of ApoC3 to inhibit VLDL uptake by HepG2 cells” value is about 100%.

B7: 5E5 IgG1 (antibody, V domains shown)
VH: QLQLVESGGGLVQPGGSLRLSCAASGFTFGTYSMRWVRQVPRKALEWVSSISTDGGGTAYRDSVKGRFTISRDNAKNTLYLQMNNLKPEDTAIYYCVIAGYSDWGQGTQVTVSS
VL: ATMLTQSPGSLSVVPGESASISCKTSQGLVHSDGKTYFYWFLQKPGQSPQQLIYQVSNRASGVPDRFTGSGSGTDFTLKISGVKAEDAGVYYCAQGTYYPHTFGSGTRLEIK
For the molecule B7, in assay [2], the “EC50, attenuation of ApoC3-mediated LPL inhibition (NEFA production)” value was over 5000 nM.
